{
  "source": "paper PMC8888459",
  "about": "(2022)",
  "binders": {"B1": {"name": "Yah1-GST fusion protein (natural protein)", "chain": "IAAHLLRTSPSLLTRTTTTTRFLPFSTSSFLNHGHLKKPKPGEELKITFILKDGSQKTYEVCEGETILDIAQGHNLDMEGACGGSCACSTCHVIVDPDYYDALPEPEDDENDMLDLAYGLTETSRLGCQIKMSKDIDGIRVALPQMTRNVNNNDFS"}},
  "key": {"Yah1-GST fusion protein [1]": {"target": "B1", "experiment": "BLI; kd1 of 2:1 fit"}, "Yah1-GST fusion protein [2]": {"target": "B1", "experiment": "BLI; kd2 of 2:1 fit, second site"}, "Yah1-GST fusion protein [3]": {"target": "B1", "experiment": "BLI; anaerobic, reduced Yah1; kd1 of 2:1 fit"}, "Yah1-GST fusion protein [4]": {"target": "B1", "experiment": "BLI; KD1 of 2:1 heterogeneous ligand fit (38%)"}, "Yah1-GST fusion protein [5]": {"target": "B1", "experiment": "BLI; anaerobic, reduced Yah1; KD1 of 2:1 fit (37%)"}, "Yah1-GST fusion protein [6]": {"target": "B1", "experiment": "BLI; anaerobic, reduced Yah1 (Fig. 6C); kd1 of 2:1 fit"}, "Yah1-GST fusion protein [7]": {"target": "B1", "experiment": "BLI; anaerobic, reduced Yah1; kd2 of 2:1 fit, second site"}, "Yah1-GST fusion protein [8]": {"target": "B1", "experiment": "BLI; KD2 of 2:1 heterogeneous ligand fit (62%), second site"}, "Yah1-GST fusion protein [9]": {"target": "B1", "experiment": "BLI; anaerobic, reduced Yah1 (Fig. 6C); KD1 of 2:1 fit (45%)"}, "Yah1-GST fusion protein [10]": {"target": "B1", "experiment": "BLI; anaerobic, reduced Yah1; KD2 of 2:1 fit (63%), second site"}, "Yah1-GST fusion protein [11]": {"target": "B1", "experiment": "BLI; anaerobic, reduced Yah1 (Fig. 6C); kd2 of 2:1 fit, second site"}, "Yah1-GST fusion protein [12]": {"target": "B1", "experiment": "BLI; anaerobic, reduced Yah1 (Fig. 6C); KD2 of 2:1 fit (55%), second site"}, "[13]": {"target": "T1, NIA–Isu1 complex with C. thermophilum Isu1 (S. cerevisiae | E. coli (endogenous in …, UniProt P25374 37-497; Q6Q560 1-94; P0A6A8 1-78)", "experiment": "BLI; kd1 of 2:1 fit"}, "[14]": {"target": "T1, NIA–Isu1 complex with C. thermophilum …", "experiment": "BLI; kd1 of 2:1 fit", "remark": "listed apart in the source"}, "[15]": {"target": "T1, NIA–Isu1 complex with C. thermophilum …", "experiment": "BLI; kd2 of 2:1 fit, second site"}, "[16]": {"target": "T1, NIA–Isu1 complex with C. thermophilum …", "experiment": "BLI; kd2 of 2:1 fit, second site", "remark": "listed apart in the source"}, "[17]": {"target": "T1, NIA–Isu1 complex with C. thermophilum …", "experiment": "BLI; KD1 of 2:1 heterogeneous ligand fit (46%)"}, "[18]": {"target": "T1, NIA–Isu1 complex with C. thermophilum …", "experiment": "BLI; KD1 of 2:1 heterogeneous ligand fit (43%)"}, "[19]": {"target": "T1, NIA–Isu1 complex with C. thermophilum …", "experiment": "BLI; KD2 of 2:1 heterogeneous ligand fit (54%), second site"}, "[20]": {"target": "T1, NIA–Isu1 complex with C. thermophilum …", "experiment": "BLI; KD2 of 2:1 heterogeneous ligand fit (57%), second site"}, "[21]": {"target": "T2, NIA complex (Nfs1–Isd11–ACPEc) (S. cerevisiae | E. coli (endogenous in …, UniProt P25374 37-497; Q6Q560 1-94; P0A6A8 1-78)", "T2 chain 1": "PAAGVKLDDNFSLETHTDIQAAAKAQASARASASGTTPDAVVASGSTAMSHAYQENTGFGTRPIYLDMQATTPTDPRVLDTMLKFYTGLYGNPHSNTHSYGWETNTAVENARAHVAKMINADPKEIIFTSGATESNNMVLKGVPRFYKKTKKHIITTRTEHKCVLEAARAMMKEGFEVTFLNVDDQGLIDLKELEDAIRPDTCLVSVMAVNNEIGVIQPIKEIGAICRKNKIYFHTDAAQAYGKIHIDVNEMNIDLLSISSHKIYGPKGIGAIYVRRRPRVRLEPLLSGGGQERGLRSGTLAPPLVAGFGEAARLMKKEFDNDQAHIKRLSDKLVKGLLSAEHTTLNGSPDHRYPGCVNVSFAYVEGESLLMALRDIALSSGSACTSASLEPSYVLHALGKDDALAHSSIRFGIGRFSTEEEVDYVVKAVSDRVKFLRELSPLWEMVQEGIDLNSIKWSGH", "T2 chain 2": "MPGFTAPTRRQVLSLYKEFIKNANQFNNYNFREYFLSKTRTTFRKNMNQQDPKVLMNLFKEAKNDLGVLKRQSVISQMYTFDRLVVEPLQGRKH", "T2 chain 3": "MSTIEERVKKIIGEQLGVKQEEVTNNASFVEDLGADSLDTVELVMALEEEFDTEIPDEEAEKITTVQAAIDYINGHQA", "experiment": "BLI; kd1 of 2:1 fit"}, "[22]": {"target": "T2, NIA complex (Nfs1–Isd11–ACPEc)", "experiment": "BLI; kd2 of 2:1 fit, second site"}, "[23]": {"target": "T2, NIA complex (Nfs1–Isd11–ACPEc)", "experiment": "BLI; KD1 of 2:1 heterogeneous ligand fit (61%)"}, "[24]": {"target": "T2, NIA complex (Nfs1–Isd11–ACPEc)", "experiment": "BLI; KD2 of 2:1 heterogeneous ligand fit (39%), second site"}},
  "data": [
    {"binder": "NIA–Isu1 complex with S. cerevisiae Isu1 (complex) chain 1: PAAGVKLDDNFSLETHTDIQAAAKAQASARASASGTTPDAVVASGSTAMSHAYQENTGFGTRPIYLDMQATTPTDPRVLDTMLKFYTGLYGNPHSNTHSYGWETNTAVENARAHVAKMINADPKEIIFTSGATESNNMVLKGVPRFYKKTKKHIITTRTEHKCVLEAARAMMKEGFEVTFLNVDDQGLIDLKELEDAIRPDTCLVSVMAVNNEIGVIQPIKEIGAICRKNKIYFHTDAAQAYGKIHIDVNEMNIDLLSISSHKIYGPKGIGAIYVRRRPRVRLEPLLSGGGQERGLRSGTLAPPLVAGFGEAARLMKKEFDNDQAHIKRLSDKLVKGLLSAEHTTLNGSPDHRYPGCVNVSFAYVEGESLLMALRDIALSSGSACTSASLEPSYVLHALGKDDALAHSSIRFGIGRFSTEEEVDYVVKAVSDRVKFLRELSPLWEMVQEGIDLNSIKWSGH chain 2: MPGFTAPTRRQVLSLYKEFIKNANQFNNYNFREYFLSKTRTTFRKNMNQQDPKVLMNLFKEAKNDLGVLKRQSVISQMYTFDRLVVEPLQGRKH chain 3: MSTIEERVKKIIGEQLGVKQEEVTNNASFVEDLGADSLDTVELVMALEEEFDTEIPDEEAEKITTVQAAIDYINGHQA chain 4: SSITKRLYHPKVIEHYTHPRNVGSLDKKLPNVGTGLVGAPACGDVMRLQIKVNDSTGVIEDVKFKTFGCGSAIASSSYMTELVQGMTLDDAAKIKNTEIAKELSLPPVKLHCSMLAEDAIKAAIKDYKSKRNTPTMLS", "values": [
      {"measurement": "koff", "setting": "Yah1-GST fusion protein [1]", "result": 0.000977, "unit": "s⁻¹"},
      {"measurement": "koff", "setting": "Yah1-GST fusion protein [2]", "result": 0.0375, "unit": "s⁻¹"},
      {"measurement": "koff", "setting": "Yah1-GST fusion protein [3]", "result": "4.05e-07", "unit": "s⁻¹"},
      {"measurement": "Kd", "setting": "Yah1-GST fusion protein [4]", "result": 325, "unit": "nM"},
      {"measurement": "Kd", "setting": "Yah1-GST fusion protein [5]", "result": 0.0165, "unit": "nM"},
      {"measurement": "koff", "setting": "Yah1-GST fusion protein [6]", "result": "4.99e-07", "unit": "s⁻¹"},
      {"measurement": "koff", "setting": "Yah1-GST fusion protein [7]", "result": 0.00421, "unit": "s⁻¹"},
      {"measurement": "Kd", "setting": "Yah1-GST fusion protein [8]", "result": 660, "unit": "nM"},
      {"measurement": "Kd", "setting": "Yah1-GST fusion protein [9]", "result": 0.02, "unit": "nM"},
      {"measurement": "Kd", "setting": "Yah1-GST fusion protein [10]", "result": 15.3, "unit": "nM"},
      {"measurement": "koff", "setting": "Yah1-GST fusion protein [11]", "result": 0.00777, "unit": "s⁻¹"},
      {"measurement": "Kd", "setting": "Yah1-GST fusion protein [12]", "result": 19.2, "unit": "nM"}
    ]},
    {"binder": "B1", "values": [
      {"measurement": "koff", "setting": "[13]", "result": 0.00167, "unit": "s⁻¹"},
      {"measurement": "koff", "setting": "[14]", "result": 0.00118, "unit": "s⁻¹"},
      {"measurement": "koff", "setting": "[15]", "result": 0.109, "unit": "s⁻¹"},
      {"measurement": "koff", "setting": "[16]", "result": 0.0403, "unit": "s⁻¹"},
      {"measurement": "Kd", "setting": "[17]", "result": 228, "unit": "nM"},
      {"measurement": "Kd", "setting": "[18]", "result": 184, "unit": "nM"},
      {"measurement": "Kd", "setting": "[19]", "result": 212, "unit": "nM"},
      {"measurement": "Kd", "setting": "[20]", "result": 800, "unit": "nM"}
    ]},
    {"binder": "Yah1 (untagged, holo) (natural protein) IAAHLLRTSPSLLTRTTTTTRFLPFSTSSFLNHGHLKKPKPGEELKITFILKDGSQKTYEVCEGETILDIAQGHNLDMEGACGGSCACSTCHVIVDPDYYDALPEPEDDENDMLDLAYGLTETSRLGCQIKMSKDIDGIRVALPQMTRNVNNNDFS", "values": [
      {"measurement": "koff", "setting": "[21]", "result": "2.08e-07", "unit": "s⁻¹"},
      {"measurement": "koff", "setting": "[22]", "result": 0.00156, "unit": "s⁻¹"},
      {"measurement": "Kd", "setting": "[23]", "result": 0.307, "unit": "nM"},
      {"measurement": "Kd", "setting": "[24]", "result": 544, "unit": "nM"}
    ]}
  ]
}
